Consider 13 molecules from US20200190192A1 (SUTRO BIOPHARMA, published 2020).

Assay [1] addresses T1, human PD-1 expressed on CHO cells (human, UniProt Q15116 25-288).
T1 construct: also called hPD-1; CHO-hPD-1
Kind of assay: flow cytometry, CHO-human PD-1 cells. Details: Bmax: unit not given here.

The target in assay [2] is T2, human Tim-3 expressed on the cell surface (human, UniProt Q8TDQ0 22-301).
T2 construct: also called hTim-3; Human Tim-3 (CHO)
Kind of assay: flow cytometry, CHO-human Tim-3 cells. Also on record: Bmax: unit not given here. Background: Flow cytometry measures light scatter and fluorescence of single cells or particles in a stream.

For assay [3], the target named is T3, biotinylated recombinant human PD-1 (AcroBiosystems) (human, UniProt Q15116 25-167, limits assumed, biotinylated (sites not given)).
T3 construct: Bought protein; also called biotinylated PD-1
Description: competition, flow cytometry: biotin-PD-1 binding to CHO-human PD-L1 cells.

Assay [4] concerns the target T4, human Tim-3 (Biacore analyte; TIM-3-Fc or TIM-3-HIS, not said which) (human, UniProt Q8TDQ0 22-202).
T4 construct: also called TIM-3 antigen; not shown: Fc or HIS tag
Description: SPR, Tim-3 analyte. A general note: In SPR one partner is held on a chip, and binding of the other changes the refractive index at the surface.

Assay [5] has as its target T1, human PD-1 expressed on CHO cells. Description: hPD-1 binding titration (format not named; taken as cell binding).
The target in assay [6] is PD-1 (SPR analyte of the PD-1 kinetics) (Homo sapiens (Human), UniProt Q15116 25-167, limits assumed). Description: SPR, PD-1 kinetics.
In assay [7] the target is T5, recombinant human Tim-3-Fc (R&D Systems, 2365-TM) (human, UniProt Q8TDQ0 22-202, biotinylated in the Galectin-9 competition ELISA (sites not given)).
T5 construct: Bought protein; also called huTim-3-Fc; biotinylated Tim-3-Fc; not shown: Fc of the bought fusion protein
Kind of assay: SPR Biacore, human Tim-3 Fc; KD estimated.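 Also: antibodies captured on an anti-FLAG sensor surface, Tim-3-Fc flowed over as analyte at 25 °C in HBS-EP+ buffer, rates fit with a 1:1 Langmuir model.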

Assay [8] has as its target T2, human Tim-3 expressed on the cell …. Description: flow cytometry, activated human CD4+ T cells.
Assay [9] has the same target. Description: flow cytometry, CHO-human Tim-3 cells.
Assay [10] deals with T6, cynomolgus Tim-3 expressed on CHO cells (cynomolgus monkey).
T6 construct: also called cTim-3; Cyno Tim-3 (CHO)
T6 chain: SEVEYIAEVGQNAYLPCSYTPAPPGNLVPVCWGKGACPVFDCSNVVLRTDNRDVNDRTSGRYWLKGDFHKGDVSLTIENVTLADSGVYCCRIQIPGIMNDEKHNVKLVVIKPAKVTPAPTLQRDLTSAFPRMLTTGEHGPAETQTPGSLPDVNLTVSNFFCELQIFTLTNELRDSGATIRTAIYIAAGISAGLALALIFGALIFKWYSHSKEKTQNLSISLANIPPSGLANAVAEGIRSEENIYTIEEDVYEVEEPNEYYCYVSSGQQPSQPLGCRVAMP
Description: flow cytometry, CHO-cyno Tim-3 cells.

Assay [11] addresses T5, recombinant human Tim-3-Fc (R&D …). Kind of assay: SPR Biacore, human Tim-3 Fc.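 Also: antibodies captured on an anti-FLAG sensor surface, Tim-3-Fc flowed over as analyte at 25 °C in HBS-EP+ buffer, rates fit with a 1:1 Langmuir model.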
Assay [12] shares this target. Description: competition ELISA, biotin-Tim-3-Fc vs coated Galectin-9. Background: In an ELISA, binding on a coated surface is turned into a signal by an enzyme label.

B1: 1353-G10 scFvFc-zwB × 1649-A01 Fab-zwA (parent) (bispecific antibody)
scFv: not shown
VH: EVQLVESGGGLVQPGGSLRLSCAASGFNISRYYIHWVRQAPGKGLEWVAGITPVRGYTEYADSVKDRFTISADTSKNTAYLQMNSLRAEDTAVYYCARGYVYRMWDSYDYWGQGTLVTVSS
VL: not shown
notes: Tim-3 heavy chain carries zwA (T350V/L351Y/F405A/Y407V) in CH3
With B1, the figures for the Bmax in [1] and in assay [2] were 13300 and 14700, respectively. In addition, the dissociation constant (Kd) in assay [1] was found to be 1.4 nM; in assay [2] it was 3.9 nM; in assay [4] it was 12 nM. The IC50 in assay [3] amounted to 191 nM.

B2: 1353-G10 scFvFc-zwB × 1649-A01 Hc zwA R31D/Y56D/TrstmbLC S56D (bispecific antibody)
scFv: not shown
VH: EVQLVESGGGLVQPGGSLRLSCAASGFNISDYYIHWVRQAPGKGLEWVAGITPVRGDTEYADSVKDRFTISADTSKNTAYLQMNSLRAEDTAVYYCARGYVYRMWDSYDYWGQGTLVTVSS
VL: not shown
Consider B2, for which the values for the Bmax in [1] and in assay [2] were 12600 and 11400, respectively. Further, the results for the Kd in assay [1], in [2] and in [4] were 1.6 nM, 3.3 nM and 8.8 nM, respectively. In addition, the IC50 in [3] is 148 nM.

B3: 1353-G10 scFvFc-zwB × 1649-A01 Hc zwA S30D/Y56D/TrstmbLC S56D (bispecific antibody)
scFv: not shown
VH: EVQLVESGGGLVQPGGSLRLSCAASGFNIDRYYIHWVRQAPGKGLEWVAGITPVRGDTEYADSVKDRFTISADTSKNTAYLQMNSLRAEDTAVYYCARGYVYRMWDSYDYWGQGTLVTVSS
VL: not shown
notes: Tim-3 heavy chain with zwA CH3 mutations; also called 1649-A01 Hc zwA S30D/Y56D/TrsimbLC S56D
Consider B3, for which the Bmax is 9650 in assay [1] and 10000 in [2]. Moreover, the dissociation constant (Kd) in assay [1] came to 1.2 nM; in [2] it was 3.6 nM; in assay [4], 9.7 nM. Also, in assay [3], the IC50 was found to be 108 nM.

B4: 1353-G10 scFvFc-zwB × 1649-A01 Hc zwA S30D/R31D/Y56D/TrstmbLC S56D (bispecific antibody)
scFv: not shown
VH: EVQLVESGGGLVQPGGSLRLSCAASGFNIDDYYIHWVRQAPGKGLEWVAGITPVRGDTEYADSVKDRFTISADTSKNTAYLQMNSLRAEDTAVYYCARGYVYRMWDSYDYWGQGTLVTVSS
VL: not shown
notes: Tim-3 heavy chain with zwA CH3 mutations
As to B4, the Bmax in assay [1] came out at 13000; in [2], 10900. Besides, the figures for the Kd in assay [1], in [2] and in [4] were 2.1 nM, 4.3 nM and 11 nM, respectively. Besides, the half-maximal inhibitory concentration (IC50) in assay [3] is 147 nM.

B5: 1353-G10 scFvFc-zwB × 1649-A01 Hc zwA S30D/TrstmbLC S56D (bispecific antibody)
scFv: not shown
VH: EVQLVESGGGLVQPGGSLRLSCAASGFNIDRYYIHWVRQAPGKGLEWVAGITPVRGYTEYADSVKDRFTISADTSKNTAYLQMNSLRAEDTAVYYCARGYVYRMWDSYDYWGQGTLVTVSS
VL: not shown
notes: as for B4
Take B5: the Bmax in [1] turned out to be 12500; in [2], 11700. Also, the dissociation constant (Kd) is 1.3 nM in [1], 3.2 nM in [2] and 7.1 nM in [4]. Also, the IC50 in assay [3] stood at 128 nM.

B6: 1353-G10 scFvFc-zwB × 1649-A01 Hc zwA S30D/R31D/TrstmbLC S56D (bispecific antibody)
scFv: not shown
VH: EVQLVESGGGLVQPGGSLRLSCAASGFNIDDYYIHWVRQAPGKGLEWVAGITPVRGYTEYADSVKDRFTISADTSKNTAYLQMNSLRAEDTAVYYCARGYVYRMWDSYDYWGQGTLVTVSS
VL: not shown
notes: as for B4
With B6, the Bmax came to 9860 in assay [1] and 10500 in [2]. Moreover, the dissociation constant Kd in [1] turned out to be 1.1 nM; in [2], 3.7 nM; in assay [4], 8.7 nM. Besides, the IC50 in [3] came out at 138 nM.

B7: 1353-G10 scFvFc-zwB × 1649-A01 Hc zwA R31D/TrstmbLC S56D (bispecific antibody)
scFv: not shown
VH: EVQLVESGGGLVQPGGSLRLSCAASGFNISDYYIHWVRQAPGKGLEWVAGITPVRGYTEYADSVKDRFTISADTSKNTAYLQMNSLRAEDTAVYYCARGYVYRMWDSYDYWGQGTLVTVSS
VL: not shown
notes: as for B4
For the molecule B7, the figures for the Bmax in [1] and in assay [2] were 14000 and 11300, respectively. For the same molecule, the results for the Kd in [1], in assay [2] and in [4] were 2.7 nM, 3.5 nM and 8.6 nM, respectively. In assay [3], the IC50 was found to be 117 nM.

B8: 1353-G10 wt IgG (antibody, V domains shown)
VH: EVQLVQSGAEVKKPGASVKVSCKASGYRFPHYGISWVRQAPGQGLEWMGWISAYNGNTNYAQKLQGRVTMTTDTSTNTAYMELRSLRSDDTAVYYCARDVDYGTGSGYWGQGTLVTVSS
VL: SYELTQPPSVSVSPGQTARITCSGDALPKQYAYWYQQKPGQAPVMVIYKDTERPSGIPERFSGSSSGTKVTLTISGVQAEDEADYYCQSADNSITYRVFGGGTKVTVL
notes: IgG; also called Sample I
With B8, in [5], the Bmax is 2980 and the equilibrium dissociation constant (Kd) came out at 0.1 nM. Further, in [6], the equilibrium dissociation constant (Kd) turned out to be 0.96 nM, the koff was 0.00059 s⁻¹ and the kon was 620000 M⁻¹ s⁻¹.

B9: 1353-G10 vk1-39 LC IgG (antibody, V domains shown)
VH: EVQLVQSGAEVKKPGASVKVSCKASGYRFPHYGISWVRQAPGQGLEWMGWISAYNGNTNYAQKLQGRVTMTTDTSTNTAYMELRSLRSDDTAVYYCARDVDYGTGSGYWGQGTLVTVSS
VL: DIQLTQSPSSLSASVGDRVTITCSGDALPKQYAYWYQQKPGKAPKLLIYKDTERPSGVPSRFSGSSSGTKVTLTISSLQPEDFATYYCQSADNSITYRVFGGGTKVEIK
notes: IgG; also called Sample K
In assay [5], B9 gave a Bmax of 3630 and a dissociation constant (Kd) of 0.8 nM. Besides, in assay [6], binding was characterised by a dissociation constant (Kd) of 0.85 nM, the dissociation rate constant (koff) was 0.00049 s⁻¹ and the kon was found to be 580000 M⁻¹ s⁻¹.

B10: 1353-G10 H1 HC IgG (antibody, V domains shown)
VH: EVQLVQSGAEVKKPGASVKVSCKASGYTFDSYGISWVRQAPGQGLEWMGWISAYNGNTNYAQKLQGRVTMTTDTSTNTAYMELRSLRSDDTAVYYCARDVDYGTGSGYWGQGTLVTVSS
VL: SYELTQPPSVSVSPGQTARITCSGDALPKQYAYWYQQKPGQAPVMVIYKDTERPSGIPERFSGSSSGTKVTLTISGVQAEDEADYYCQSADNSITYRVFGGGTKVTVL
notes: IgG; also called Sample J
In assay [5], B10 gave a Bmax of 3410 and a Kd of 0.5 nM. Besides, in assay [6], the dissociation constant Kd worked out at 2.3 nM, the koff was found to be 0.0026 s⁻¹ and the kon came out at 1.1e+06 M⁻¹ s⁻¹.

B11: h22E11-VK4-1 × h22E11-VH3-23 (antibody, V domains shown)
VH: EVQLLESGGGLVQPGGSLRLSCAVSGFSLTSYGVHWVRQAPGKGLEWLVVIWSDGSTTYNDSVKGRFTISKDNSKNTVYLQMNSLRAEDTAVYYCARQGGYRYDDAMDYWGQGTLVTVSS
VL: DIVLTQSPDSLAVSLGERATINCKASQSVDYDGNSYVNWYQQKPGQPPKLLIYAASNLESGVPDRFSGSGSGTDFTLTISSLQAEDVAVYYCQQSNEDPYTFGQGTKVEIK
notes: Humanized m22E11
Consider B11, for which the dissociation constant Kd is 5 nM in [7], 0.9 nM in [8], 0.9 nM in [9] and 4.6 nM in [10]. For the same molecule, the koff in assay [11] was 0.000875 s⁻¹. The IC50 in [12] was found to be 0.67 nM.

B12: h22E11-5-IgG-LC × h22E11-5-IgG-HC (antibody, V domains shown)
VH: EVQLVESGGGLVQPGGSLRLSCAVSGFSLTSYGVHWVRQAPGKGLEWLVVIWSDGSTTYNSALKSRFTISKDNAKNSVYLQMNSLRAEDTAVYYCARQGGYRYDDAMDYWGQGTLVTVSS
VL: EIVLTQSPGTLSLSPGERATLSCKASQSVDYDGNSYVAWYQQKPGQAPRLLIYAASNLESGIPDRFSGSGSGTDFTLTISRLEPEDFAVYYCQQSNEDPYTFGQGTKVEIK
notes: Humanized m22E11; also called h22E11-5 IgG (lot 2)
B12: the equilibrium dissociation constant (Kd) in assay [7] is 6.8 nM; in assay [9], 1 nM. In [11], the dissociation rate constant (koff) came out at 0.0011 s⁻¹. In addition, the IC50 in [12] amounted to 0.77 nM.

B13: h22E11-VK3-11 × h22E11-5-IgG-HC (antibody, V domains shown)
VH: EVQLVESGGGLVQPGGSLRLSCAVSGFSLTSYGVHWVRQAPGKGLEWLVVIWSDGSTTYNSALKSRFTISKDNAKNSVYLQMNSLRAEDTAVYYCARQGGYRYDDAMDYWGQGTLVTVSS
VL: EIVLTQSPATLSLSPGERATLSCKASQSVDYDGNSYVNWYQQKPGQAPRLLIYAASNLESGIPARFSGSGSGTDFTLTISSLEPEDFAVYYCQQSNEDPYTFGQGTKVEIK
notes: Humanized m22E11
As for B13, the dissociation constant (Kd) in [7] was 5.9 nM; in assay [8], 1.1 nM; in assay [9] it was 0.8 nM; in assay [10], 5.3 nM. Also, the koff in assay [11] turned out to be 0.00104 s⁻¹. Besides, the IC50 in assay [12] stood at 0.64 nM.

Usually Kd stands for the concentration at which binding is half-saturated. Usually IC50 stands for the concentration that inhibits the measured activity by half. What is called koff is a measure of how fast the partners let go of each other. The kon is a measure of how fast the partners come together.
